Laboratory results published in US20220002436A1 (DENALI THERAPEUTICS, published 2022).
Residue numbers refer to the chain shown, from its start.

B1: anti-HER2-DI (antibody, human IgG1, kappa, V domains shown)
VH: QVQLQQPGAELVRPGASVKLSCKASGYSFTGYWMNWLKQRPGQGLEWIGMIHPSDSEIRANQKFRDKATLTVDKSSTTAYMQLSSPTSEDSAVYYCARGTYDGGFEYWGQGTTLTVSS
VL: DIVLTQSPASLVVSLGQRATISCRASQSVSGSRFTYMHWYQQKPGQPPKLLIKYASILESGVPARFSGGGSGTDFTLNIHPVEEDDTATYYCQHSWEIPPWTFGGGTKLEIKR
B2: HER2_DI-35.23.4^cisLALA (bispecific antibody, human IgG1, kappa, L234A L235A)
heavy 1: QVQLQQPGAELVRPGASVKLSCKASGYSFTGYWMNWLKQRPGQGLEWIGMIHPSDSEIRANQKFRDKATLTVDKSSTTAYMQLSSPTSEDSAVYYCARGTYDGGFEYWGQGTTLTVSSASTKGPSVFPLAPSSKSTSGGTAALGCLVKDYFPEPVTVSWNSGALTSGVHTFPAVLQSSGLYSLSSVVTVPSSSLGTQTYICNVNHKPSNTKVDKKVEPKSCDKTHTCPPCPAPEAAGGPSVFLFPPKPKDTLMISRTPEVTCVVVDVSHEDPEVKFNWYVDGVEVHNAKTKPREEQYNSTYRVVSVLTVLHQDWLNGKEYKCKVSNKALPAPIEKTISKAKGQPREPQVYTLPPSRDELTKNQVSLWCLVKGFYPSDIAVEWESYGTEWSNYKTTPPVLDSDGSFFLYSKLTVSKEEWQQGFVFSCSVMHEALHNHYTQKSLSLSPGK
heavy 2: not shown
light: DIVLTQSPASLVVSLGQRATISCRASQSVSGSRFTYMHWYQQKPGQPPKLLIKYASILESGVPARFSGGGSGTDFTLNIHPVEEDDTATYYCQHSWEIPPWTFGGGTKLEIKRTVAAPSVFIFPPSDEQLKSGTASVVCLLNNFYPREAKVQWKVDNALQSGNSQESVTEQDSKDSTYSLSSTLTLSKADYEKHKVYACEVTHQGLSSPVTKSFNRGEC
notes: Fc polypeptide dimer-Fab fusion; the hole chain has no TfR site and no LALA; also called ATV:HER2-DI; ATV:-HER2-DI
B3: HER2_DII-35.23.1.1^cisLALA (bispecific antibody, human IgG1, kappa, L234A L235A)
heavy 1: EVQLVESGGGLVQPGGSLRLSCAASGFTFTDYTMDWVRQAPGKGLEWVADVNPNSGGSIYNQRFKGRFTLSVDRSKNTLYLQMNSLRAEDTAVYYCARNLGPSFYFDYWGQGTLVTVSSASTKGPSVFPLAPSSKSTSGGTAALGCLVKDYFPEPVTVSWNSGALTSGVHTFPAVLQSSGLYSLSSVVTVPSSSLGTQTYICNVNHKPSNTKVDKKVEPKSCDKTHTCPPCPAPEAAGGPSVFLFPPKPKDTLMISRTPEVTCVVVDVSHEDPEVKFNWYVDGVEVHNAKTKPREEQYNSTYRVVSVLTVLHQDWLNGKEYKCKVSNKALPAPIEKTISKAKGQPREPQVYTLPPSRDELTKNQVSLWCLVKGFYPSDIAVEWESFGTEWSNYKTTPPVLDSDGSFFLYSKLTVSKEEWQQGFVFSCSVMHEALHNHYTQKSLSLSPGK
heavy 2: not shown
light: not shown
notes: Fc polypeptide dimer-Fab fusion; the second heavy chain is a hole Fc without a TfR site; also called ATV35.23.1.1:Her2_DII huIgG1.LALA.knob
B4: HER2_DII-35.23.4^cisLALA (bispecific antibody, human IgG1, kappa, L234A L235A)
heavy 1: B3 heavy 1 with F386Y
heavy 2: not shown
light: not shown
notes: also called ATV:HER2-DII; ATV:-HER2-DII

Experiments:
[1] = target: T1, HER2 extracellular domain (human, UniProt P04626 23-652); assay: SPR (Biacore T200 or 8K), captured via anti-human IgG (Fc), recombinant HER2 extracellular domain as analyte, 1:1 kinetic fit
T1 construct: extracellular domain; also called HER2 ECD; HER2-ECD
Experimental: (§1) Affinities of mAbs and TfR-binding Fc polypeptides were measured by SPR using a Biacore T200 or a Biacore 8K. Biacore™ Series S CM5 sensor chips were immobilized with monoclonal mouse anti-human IgG (Fc) antibody for HER2 affinity measurements or mouse anti-human Fab for TfR affinity measurements (human antibody or Fab capture kit from GE Healthcare). Serial 3-fold dilutions of analyte (recombinant HER2 extracellular domain or recombinant TfR apical domain) were injected at a flow rate of 30 μL/min. Each sample was analyzed using a 3-minute association and a 10-minute dissociation. After each injection, the chip was regenerated using 3 M MgCl₂. Binding response was corrected by subtracting the RU from a flow cell capturing an irrelevant IgG at similar density. A 1:1 Languir model of simultaneous fitting of kₒₙ and koff was used for kinetics analysis.

Human TfR apical domain [2] = target: T2, Human TfR apical domain (human, UniProt P02786 198-378); assay: SPR (Biacore), antibody captured via anti-human Fab, recombinant TfR apical domain as analyte; the table footnote says NB = no binding
T2 construct: also called apical hTfR; human apical hTfR
T2 sequence (P02786 198-378 limits assumed): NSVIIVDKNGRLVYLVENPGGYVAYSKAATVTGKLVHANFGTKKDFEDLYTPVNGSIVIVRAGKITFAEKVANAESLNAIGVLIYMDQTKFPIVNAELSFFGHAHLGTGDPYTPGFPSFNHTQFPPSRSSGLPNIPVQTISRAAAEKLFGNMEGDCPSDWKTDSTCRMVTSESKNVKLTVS
Experimental: as §1

Human TfR apical domain [3] = target: T2, Human TfR apical domain; assay: SPR (Biacore T200 or 8K), captured via anti-human Fab, recombinant TfR apical domain as analyte, steady-state affinity
Experimental: as §1

Human TfR apical domain [4] = target: T2, Human TfR apical domain; assay: SPR (Biacore), apical hTfR
Human TfR apical domain [5] = target: T2, Human TfR apical domain; assay: SPR (Biacore 8K), fusion protein captured with Human Fab Capture Kit, human TfR apical domain as analyte, 1:1 kinetic fit
Experimental: The affinities of Fc polypeptide dimer-antibody variable region fusion proteins for human TfR apical domain and HER2 ECD were determined by surface plasmon resonance using a Biacore™ 8K. Fc polypeptide dimer-antibody variable region fusion proteins were captured using a Human Fab Capture Kit (GE, #28-9583-25) on Biacore™ Series S CM5 sensor chips (GE, #29149604) for measurement of human TfR apical domain binding, or using a Human Fc capture Kit (GE, #29234600) for measurement of human HER2-ECD binding (ACROBiosystems, HE2-H5225). Serial 3-fold dilutions of each antigen were injected at a flow rate of 30 μL/min. The binding of the antigens to captured Fc polypeptide dimer-antibody variable region fusion proteins was monitored for 30 to 300 seconds and then their dissociation was monitored for 30-4,200 seconds in HBS-EP+ running buffer. Binding responses were corrected by subtracting the RU from a blank flow cell. A 1:1 Languir model of simultaneous fitting of kₒₙ and koff was used for kinetics analysis.

[6] = target: HER2 on HER2-positive cancer cells (BT474, OE19, SK-BR-3) (human, UniProt P04626 23-1255); assay: cell-based or functional assay

Binder	Kd [1] [nM]	koff [1] [s⁻¹]	kon [1] [M⁻¹ s⁻¹]	binding result (Human TfR apical domain [2])	Kd (Human TfR apical domain [3]) [nM]	Kd (Human TfR apical domain [4]) [nM]	Kd (Human TfR apical domain [5]) [nM]	IC50, BT474 cell viability (growth inhibition assay) [6] [nM]	IC50, OE19 cell viability (growth inhibition assay) [6] [nM]
B1	6.5	0.00101	154000	no binding					
B2	7.5	0.00105	139000		370				
B3						620	534		
B4					450		445	1.17	0.725
